The text below walks through data of paper PMC3093372, “A Large and Intact Viral Particle Penetrates the Endoplasmic Reticulum Membrane to Reach the Cytosol” (PLoS Pathogens, 2011).

The chains are these.
B1: SV40 VP1 coat protein (natural protein, simian virus 40 (SV40), UniProt P03087 1-362, looked up)
chain: MAPTKRKGSCPGAAPKKPKEPVQVPKLVIKGGIEVLGVKTGVDSFTEVECFLNPQMGNPDEHQKGLSKSLAAEKQFTDDSPDKEQLPCYSVARIPLPNINEDLTCGNILMWEAVTVKTEVIGVTAMLNLHSGTQKTHENGAGKPIQGSNFHFFAVGGEPLELQGVLANYRTKYPAQTVTPKNATVDSQQMNTDHKAVLDKDNAYPVECWVPDPSKNENTRYFGTYTGGENVPPVLHITNTATTVLLDEQGVGPLCKADSLYVSAVDICGLFTNTSGTQQWKGLPRYFKITLRKRSVKNPYPISFLLSDLINRRTQRVDGQPMIGMSSQVEEVRVYEDTEELPGDPDMIRYIDEFGQTTTRMQ
notes: major capsid protein VP1 of simian virus 40, native protein of the virus (genome from pUCSV40); no residues stated; Stood in the assays as part of viral particles or of VP1 pentamers; the introduction says the capsid is 72 pentamers of VP1; source: SV40 virions purified from SV40-infected or viral genome-transfected CV-1 cells (OptiPrep gradient); input virus in S1 and S2 fractions and whole cell …

Data set [1] deals with the molecule itself. In words: sucrose gradient sedimentation; S1 of CV-1 cells transfected with the SV40 genome for 48 hrs; continuous 20-40% sucrose gradient, 49,500 rpm, 50 min, 4°C; fractions blotted for VP1.
In data set [2] the target is B1. In words: co-IP; S2 (Triton X-100 extract of P1, ER-localized virus) from CV-1 cells infected with SV40 for 12 hrs; precipitated with VP1 monoclonal antibodies (CC10 and BC11), Protein G-Dynabeads, wash 50 mM Hepes pH 7.5, 500 mM NaCl, 1% Triton X-100; blot with VP2/VP3 antibody. The note with it: partners not purified.

A word on the stoichiometry N: it is the number of molecules, sites or subunits per partner or assembly. Regarding B1, in data set [1], the “stoichiometry N” value worked out at 5.

B2: SV40 VP2 (natural protein)
chain: MGAALTLLGDLIATVSEAAAATGFSVAEIAAGEAAAAIEVQLASVATVEGLTTSEAIAAIGLIPQAYAVISGAPAAIAGFAALLQTVTGVSAVAQVGYRFFSDWDHKVSTVGLYQQPGMAVDLYRPDDYYDILFPGVQTFVHSVQYLDPRHWGPTLFNAISQAFWRVIQNDIPRLTSQELERRTQRYLRDSLARFLEETTWTVINAPVNWYNSLQDYYSTLSPIRPTMVRQVANREGLQISFGHTYDNIDEADSIQQVTERWEAQSQSPNVQSGEFIEKFEAPGGANQRTAPQWMLPLLLGLYGSVTSALKAYEDGPNKKKRKLSRGSSQKTKGTSASAKARHKRRNRSSRS
notes: minor capsid protein VP2 of simian virus 40, native protein of the virus; contains all of VP3 plus an additional N-terminal extension; Detected with a VP2/VP3 antibody that sees both proteins; source: SV40 virions purified from SV40-infected or viral genome-transfected CV-1 cells (OptiPrep gradient); input virus in S1 and S2 fractions of infected CV-1 cells
As for B2, the binding result in data set [2] is reported as “binds”.
